One assay deals with Rac1 (human, UniProt P63000 1-192). As to the kind of experiment: pull-down; (His)6-tagged GTPase held on nickel beads, 2 µg GST-tagged partner added; 20 mM HEPES pH 7.4, 150 mM NaCl, 5 mM MgCl2, 40 mM imidazole, 4 °C, 1 h; GST-tagged protein detected by anti-GST western blot; samples without effect of DC-Rhoin. As to conditions: both partners purified.
Assay [1] deals with T1, RalGPS1 (residues 24-289) (human, UniProt Q5JS13 24-289).
T1 construct: RalGPS1, human, residues 24-289; also called respective GEF of Ral-B (pairing inferred); source: E. coli BL21 (DE3), purified (GSTTrap, Superdex 75)
The description is as above. Conditions: both partners purified.

This is an account of results in paper PMC7375240, “Covalent Inhibitors Allosterically Block the Activation of Rho Family Proteins and Suppress Cancer Cell Invasion” (Advanced Science, 2020).

T1 sequence (Q5JS13 24-289): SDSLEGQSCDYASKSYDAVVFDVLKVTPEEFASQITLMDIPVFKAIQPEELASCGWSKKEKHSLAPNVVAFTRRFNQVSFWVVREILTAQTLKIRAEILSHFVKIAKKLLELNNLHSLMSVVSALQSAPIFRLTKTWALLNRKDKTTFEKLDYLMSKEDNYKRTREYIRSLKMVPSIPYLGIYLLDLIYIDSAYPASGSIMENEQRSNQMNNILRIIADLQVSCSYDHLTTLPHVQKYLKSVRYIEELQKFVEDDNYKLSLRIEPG

B1: Tiam1 (residues 1033-1406) (domain or fragment)
chain: RQLSDADKLRKVICELLETERTYVKDLNCLMERYLKPLQKETFLTQDELDVLFGNLTEMVEFQVEFLKTLEDGVRLVPDLEKLEKVDQFKKVLFSLGGSFLYYADRFKLYSAFCASHTKVPKVLVKAKTDTAFKAFLDAQNPRQQHSSTLESYLIKPIQRVLKYPLLLRELFALTDAESEEHYHLDVAIKTMNKVASHINEMQKIHEEFGAVFDQLIAEQTGEKKEVADLSMGDLLLHTSVIWLNPPASLGKWKKEPELAAFVFKTAVVLVYKDGSKQKKKLVGSHRLSIYEEWDPFRFRHMIPTEALQVRALPSADAEANAVCEIVHVKSESEGRPERVFHLCCSSPESRKDFLKSVHSILRDKHRRQLLKTE
notes: Tiam1, murine, residues 1033-1406; The text says only 'their respective GEFs'; that this construct was the GEF used with Rac1 is inferred from the list of constructs; also called respective GEF of Rac1 (pairing inferred); source: E. coli BL21 (DE3), purified (GSTTrap, Superdex 75)
In the case of B1, in the assay with Rac1, the binding result is recorded as “binds”.

B2: Ral-B (natural protein, human, UniProt P11234 1-206, looked up)
chain: MAANKSKGQSSLALHKVIMVGSGGVGKSALTLQFMYDEFVEDYEPTKADSYRKKVVLDGEEVQIDILDTAGQEDYAAIRDNYFRSGEGFLLVFSITEHESFTATAEFREQILRVKAEEDKIPLLVVGNKSDLEERRQVPVEEARSKAEEWGVQYVETSAKTRANVDKVFFDLMREIRTKKMSENKDKNGKKSSKNKKSFKERCCLL
notes: RalB, human, full length, in pET28a with a TEV site; source: E. coli BL21 (DE3), purified (HisTrap FF, Superdex 75)
Take B2: the binding result in assay [1] was “binds”.
